Data: article PMC4935880, “COG lobe B sub-complex engages v-SNARE GS15 and functions via regulated interaction with lobe A sub-complex” (Scientific Reports, 2016)
Each block holds one molecule with its values, some of them ahead of it.

What was measured:
GFP-hGS15 (human) [1] = target: GFP-hGS15 (human) (UniProt Q9NYM9); experiment: co-IP; GFP IP on GBP (GFP binding protein) beads from lysates of transfected HEK293T cells (50 mM Tris pH 7.4, 150 mM NaCl, 1% Triton X-100), 2 h at room temperature; blotted for COG8, Myc and GFP
GFP-hGS15 (human) [2] = target: GFP-hGS15 (human) (UniProt Q9NYM9); experiment: co-IP; HEK293T cells with lobe B-myc and a GFP-tagged partner fractionated into P15, P100 and S100; membrane pellets solubilised with Triton X-100 and incubated with GBP-beads; blotted with anti-Myc and anti-GFP
[3] = target: T1, lobe B complex isolated from HEK cells (GFP-hCOG5 + hCOG6/8-3Myc + hCOG7-3Myc) (human, UniProt Q9UP83 1-860; Q9Y2V7 1-657; P83436 1-770; Q96MW5 1-612); experiment: pull-down; GST-tagged GS15 proteins held on Glutathione Sepharose 4B; whole COG complex or lobe B isolated from HEK cells added in 25 mM HEPES-KOH pH 7.4, 25 mM KCl, 2.5 mM magnesium acetate, 1 mM DTT, 0.05% Tween-20, 1 hour at room temperature; Myc blot; settings: both partners purified
T1 construct: Human COG5 in pEGFP-C1; Human COG6-3Myc in MultiLabel vector; Human COG7 in pCMV-3Myc; Human COG8-3Myc in MultiLabel vector; Elution from TALON by imidazole probably releases His6-GBP together with the GFP-tagged complex; also called lobe B sub-complex; purified lobe B; source: HEK293T, transfected; isolated by Sephacryl S-300 HR gel filtration and TALON-GBP beads, eluted with 350 mM imidazole, …
T1 sequence (Q9UP83 whole entry, chain 1 of 4): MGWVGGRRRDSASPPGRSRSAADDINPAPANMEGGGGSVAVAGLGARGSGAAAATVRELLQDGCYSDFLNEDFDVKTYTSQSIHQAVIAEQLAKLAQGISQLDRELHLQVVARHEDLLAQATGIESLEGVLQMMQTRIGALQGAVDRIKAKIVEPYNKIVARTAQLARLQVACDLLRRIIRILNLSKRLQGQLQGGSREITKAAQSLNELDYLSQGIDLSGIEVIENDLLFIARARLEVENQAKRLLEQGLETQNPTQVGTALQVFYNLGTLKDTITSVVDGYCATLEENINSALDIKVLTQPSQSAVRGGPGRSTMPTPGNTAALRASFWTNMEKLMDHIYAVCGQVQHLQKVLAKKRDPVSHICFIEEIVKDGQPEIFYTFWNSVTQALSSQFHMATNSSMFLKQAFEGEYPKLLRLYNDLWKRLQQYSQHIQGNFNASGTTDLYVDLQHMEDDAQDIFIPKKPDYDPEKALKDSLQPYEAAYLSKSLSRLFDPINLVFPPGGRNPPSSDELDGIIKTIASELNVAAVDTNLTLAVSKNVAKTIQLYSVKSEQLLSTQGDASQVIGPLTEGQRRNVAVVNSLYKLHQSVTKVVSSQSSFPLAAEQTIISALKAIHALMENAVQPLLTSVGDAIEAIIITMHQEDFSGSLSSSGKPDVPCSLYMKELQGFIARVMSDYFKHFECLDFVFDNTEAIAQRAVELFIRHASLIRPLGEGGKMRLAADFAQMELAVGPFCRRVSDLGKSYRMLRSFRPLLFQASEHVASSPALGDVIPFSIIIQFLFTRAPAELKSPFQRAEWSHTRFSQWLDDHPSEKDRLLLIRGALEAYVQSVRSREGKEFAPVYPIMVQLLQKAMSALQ
T1 sequence (Q9Y2V7 whole entry, chain 2 of 4): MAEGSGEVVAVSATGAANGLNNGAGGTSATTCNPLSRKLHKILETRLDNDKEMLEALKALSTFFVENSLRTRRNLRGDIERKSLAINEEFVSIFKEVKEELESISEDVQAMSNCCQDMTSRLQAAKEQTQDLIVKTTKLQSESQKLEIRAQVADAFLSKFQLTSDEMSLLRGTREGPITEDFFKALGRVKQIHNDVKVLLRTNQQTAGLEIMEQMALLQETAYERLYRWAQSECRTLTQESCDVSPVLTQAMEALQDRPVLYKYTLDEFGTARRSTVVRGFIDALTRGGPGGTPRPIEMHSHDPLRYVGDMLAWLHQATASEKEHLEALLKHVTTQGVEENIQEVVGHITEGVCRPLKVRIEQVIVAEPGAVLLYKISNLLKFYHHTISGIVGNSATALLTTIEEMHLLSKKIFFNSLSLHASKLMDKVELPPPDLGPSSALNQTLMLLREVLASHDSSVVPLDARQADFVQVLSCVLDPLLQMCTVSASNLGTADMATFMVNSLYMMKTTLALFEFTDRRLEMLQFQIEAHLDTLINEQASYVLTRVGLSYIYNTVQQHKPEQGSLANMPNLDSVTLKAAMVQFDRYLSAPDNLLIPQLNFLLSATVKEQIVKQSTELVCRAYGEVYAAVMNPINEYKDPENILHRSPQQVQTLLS
T1 sequence (P83436 whole entry, chain 3 of 4): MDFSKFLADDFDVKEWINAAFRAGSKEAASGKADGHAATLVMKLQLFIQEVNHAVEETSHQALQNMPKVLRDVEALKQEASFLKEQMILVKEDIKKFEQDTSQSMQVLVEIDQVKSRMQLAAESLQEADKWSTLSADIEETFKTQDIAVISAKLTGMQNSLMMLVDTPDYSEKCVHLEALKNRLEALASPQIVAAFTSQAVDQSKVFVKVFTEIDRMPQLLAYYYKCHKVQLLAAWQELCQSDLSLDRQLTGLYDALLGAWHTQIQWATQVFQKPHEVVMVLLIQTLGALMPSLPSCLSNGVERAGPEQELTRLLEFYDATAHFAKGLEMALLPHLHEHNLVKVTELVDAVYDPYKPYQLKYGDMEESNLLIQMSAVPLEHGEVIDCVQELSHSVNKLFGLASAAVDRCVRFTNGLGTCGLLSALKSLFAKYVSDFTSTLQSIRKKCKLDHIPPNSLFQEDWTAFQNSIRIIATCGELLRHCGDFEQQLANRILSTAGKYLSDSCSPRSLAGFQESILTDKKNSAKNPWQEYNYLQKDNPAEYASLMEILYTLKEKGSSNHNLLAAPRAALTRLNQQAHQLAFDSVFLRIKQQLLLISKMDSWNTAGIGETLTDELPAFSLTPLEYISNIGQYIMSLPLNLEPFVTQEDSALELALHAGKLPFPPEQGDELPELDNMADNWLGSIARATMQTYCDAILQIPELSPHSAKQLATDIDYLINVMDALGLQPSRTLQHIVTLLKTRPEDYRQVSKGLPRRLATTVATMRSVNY
T1 sequence (Q96MW5 whole entry, chain 4 of 4): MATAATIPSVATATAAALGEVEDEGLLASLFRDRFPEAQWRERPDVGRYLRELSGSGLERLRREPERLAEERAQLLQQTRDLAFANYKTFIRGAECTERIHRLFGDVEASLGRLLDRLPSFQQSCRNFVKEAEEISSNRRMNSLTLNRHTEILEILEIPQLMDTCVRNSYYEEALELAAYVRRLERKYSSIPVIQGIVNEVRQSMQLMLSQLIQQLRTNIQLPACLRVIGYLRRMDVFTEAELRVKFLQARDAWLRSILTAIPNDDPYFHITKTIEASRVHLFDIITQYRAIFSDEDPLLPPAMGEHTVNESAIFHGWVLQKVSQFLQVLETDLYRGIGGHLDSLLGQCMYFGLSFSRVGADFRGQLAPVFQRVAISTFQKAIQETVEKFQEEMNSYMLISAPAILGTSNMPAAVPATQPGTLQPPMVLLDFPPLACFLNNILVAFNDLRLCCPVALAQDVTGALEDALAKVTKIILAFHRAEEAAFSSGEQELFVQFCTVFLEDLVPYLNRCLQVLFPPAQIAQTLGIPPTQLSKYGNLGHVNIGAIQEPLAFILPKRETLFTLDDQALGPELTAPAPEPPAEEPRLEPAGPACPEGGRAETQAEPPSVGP

[4] = target: T2, whole COG complex isolated from HEK cells (GFP-mCOG3 + hCOG1/2/4-3Myc + hCOG6/8-3Myc + hCOG5/7-3Myc) (human | mouse, UniProt Q8WTW3 1-980; Q14746 1-738; Q8CI04 1-820; Q9H9E3 1-785; Q9UP83 1-860; Q9Y2V7 …); experiment: as above; settings: both partners purified
T2 construct: Human COG1-3Myc in MultiLabel vector; Human COG2Streptag-3Myc in MultiLabel vector; Mouse COG3 in pEGFP-C1; Human COG4-3Myc in MultiLabel vector; Human COG5-3Myc in MultiLabel vector; Human COG6-3Myc in MultiLabel vector; Human COG7-3Myc in MultiLabel vector; Human COG8-3Myc in MultiLabel vector; Elution from TALON by imidazole probably releases His6-GBP together with the GFP-tagged complex; also …

co-IP efficiency (percent of input) (GFP-hGS15 (human) [1]): 0.3%
Molecule: COG1-HA-GS-COG8 hybrid (hCOG1-HA-GS-TEV-hCOG8-3Myc)

percent pull-down (GFP-hGS15 (human) [2]): < 12%
Molecule: lobe B sub-complex, myc-tagged (hCOG5-3Myc, hCOG6-3Myc, hCOG7-3Myc, hCOG8-3Myc), Q9UP83 1-860; Q9Y2V7 1-657; P83436 1-770; Q96MW5 1-612

binding result [3]: binds
binding result [4]: binds
B1: His-hGS15-GST, full-length (FL) GS15 cytoplasmic domain (aa 1–86) (domain or fragment, human, UniProt Q9NYM9 1-86, looked up)
chain: MADWARAQSPGAVEEILDRENKRMADSLASKVTRLKSLALDIDRDAEDQNRYLDGMDSDFTSMTSLLTGSVKRFSTMARSGQDNRK
notes: Human GS15 cytoplasmic domain (aa 1–86) in pET28a; also called GST-tagged full-length (FL) GS15 cytoplasmic domain; not shown: GST, C-terminal, kept
